Results on one protein are retold here after publication PMC2708785 (Biochemistry, 2009).

Broadly, the stoichiometry N is the number of molecules, sites or subunits per partner or assembly.

The series “AUC” concerns the molecule itself. The series is described as follows: AUC.
The series “crystal structure” deals with the molecule itself. The series is described as follows: crystal structure.

B1: 2-methyl-3-hydroxypyridine-5-carboxylic acid oxygenase (MHPCO) from Mesorhizobium loti MAFF303099, with N-terminal 6xHis tag (enzyme, UniProt Q988D3 1-379, looked up)
chain: MANVNKTPGKTRRAEVAGGGFAGLTAAIALKQNGWDVRLHEKSSELRAFGAGIYLWHNGLRVLEGLGALDDVLQGSHTPPTYETWMHNKSVSKETFNGLPWRIMTRSHLHDALVNRARALGVDISVNSEAVAADPVGRLTLQTGEVLEADLIVGADGVGSKVRDSIGFKQDRWVSKDGLIRLIVPRMKKELGHGEWDNTIDMWNFWPRVQRILYSPCNENELYLGLMAPAADPRGSSVPIDLEVWVEMFPFLEPCLIEAAKLKTARYDKYETTKLDSWTRGKVALVGDAAHAMCPALAQGAGCAMVNAFSLSQDLEEGSSVEDALVAWETRIRPITDRCQALSGDYAANRSLSKGNMFTPAALEAARYDPLRRVYSWPQ
modifications: selenomethionine in place of methionine (SeMet MHPCO)
In the case of B1, the “stoichiometry N” value stood at 4 in “AUC” and 2 in “crystal structure”.
